{"source": "patent US20220153834A1", "about": "(published 2022)", "binders": {"B1": {"name": "1A9 (antibody, V domains shown)", "VH": "EVQLQQSGPELVKPGASVKISCKASGYTFTDYYMNWVKQSHEKSLEWIGDINPNNGGTSYNQKFMGKATLTVDKSSRTAYMELRSLTSEDSTVYYCARWGIYDRFTYWGQGTLVSVSA", "VL": "DIKMTQSPSSMYASLGERVTIACKASQDINSFLSWFQQKPGKSPKTLIYRANRLVDGVPSRFSGSGSGQDYSLTISSLEYEDMGIYYCLQYDEFPLTFGAGTKLELKR"}, "B2": {"name": "5A5 (antibody, V domains shown)", "VH": "QVQLQQSGAELAKPGASVRLSCQASGYTFTTYWMHWVKQRPRQGLEWIGYIIPSSGYSKCHQKFKDKATLTADKSSNTASMQLSSLTYEDSAVYYCARSTSGYPYYFDYWGQGTTLTVSS", "VL": "ENVLTQSPAIMSASPGEKVTMTCSATSSVSYMHWYQQKSSTSPKLWIYDTSKLASGVPGRFSGSGSGNSYSLTISSMEAEDVATYYCFQGSWYPLTFGAGTKLELKR"}, "B3": {"name": "5D9 (antibody, V domains shown)", "VH": "QVQLQQSGAELARPGASVKLSCKASDDTFINYGINWVKQRTGQGLEWIGETFPSNGNTFYNEKFKGKATLTADRSSSTTYMELRSLTSEDAAVYFCARHSNLPYFDHWGQGSTLTVSS", "VL": "DIVMTQSPSSLSVSAGEKVTMSCKSSQSLLNSGNQKNYLAWYQQKPGQPPKLLIYGASTRESGVPERFTGSGSGTDFTLTISSVQAEDLAVYYCQNDHSYPFTFGGGTNLEIKR"}, "B4": {"name": "3E1 (antibody, V domains shown)", "VH": "B2 VH with T31S, S58T, N77S, S80Y, Y109S", "VL": "B2 VL with K18R, Y31F"}, "B5": {"name": "4E4 (antibody, V domains shown)", "VH": "QVQLQQPGAELVKPGASVKLSCKASGYTFTSYWMHWVKQRPGQGLEWIGMIHPNSGSTNYNEKFKNKATLTVDKSSSTAYMQLSSLTSEDSAVYYCAPRMFDDYDDYWGQGTTLTVSS", "VL": "QIVLTQSPAIMSASLGERVTMTCTASSSVSSSYLHWYQQKPGSSPKLWIYSTSNLASGVPVRFSGSGSGTSYSLTISRMEAEDAATYYCHHYHRSPYTFGGGTKLEIKR"}, "B6": {"name": "1D7 (antibody, V domains shown)", "VH": "B1 VH with E42G, S59T, M65K, R77S, T92A, Y102F, L113V, S115T", "VL": "B1 VL with L15R, A22T"}, "B7": {"name": "3C6 (antibody, V domains shown)", "VH": "EVQLQQSGPELVKPGASVKIPCKASGYTFTDYNMDWVKQSHGESLEWIGDIYPNNGGTIYNQKFKDKATLTVDKSSSTAYMELRSLTSEDNAVYYCARKTGTGFDYWGQGTTLTVSS", "VL": "QIVLSQSPAILSASPGEKVTMTCRARSSVIYMHWYQQKPGSSPKPWIYATFNLASGVPARFSGSGSGTSYSLTISRVEAEDAATYYCQQWSSNPPTFGSGTKLEIKR"}, "B8": {"name": "3E4 (antibody, V domains shown)", "VH": "QVQLQQPGAELVKPGASVKLSCKASGYTFTSQWMHWVKQRPGQGLEWIGMIHPNSGSTNNNEKFKSKATLTVDKSSSTAYMQLSSLTSEDSAVYYCTRWAMDYWGQGTSVTASS", "VL": "DVVMTQTPLSLPVSLGDLASISCRSSQSLVHSNGNTYLHWYLQKPGQSPKLLIFKVSNRFSGVPDRFSGSGSGTDFTLKISRVEAEDLGVYFCSQSTHVPWTFGGGTKLEIKR"}, "B9": {"name": "ID12 (antibody, V domains shown)", "VH": "QVQLQQSGPELVKPGASVKLSCKTSGYTFTSYDINWVKQRPGQGLEWIGWIYPSDGSTKFNEKFKGMATLTVDTSSSTAYMELHSLTSEDSTVYFCARGLWYYGGGVDYWGQGTSVTVSS", "VL": "DAVMTQTPLSLPVSLGDQASISCRSTQSLEDSNGNTYLNWYLQKPGQSPQLLIYRVSNRFSGVLDRFSGSGSGTDFTLKISRVEAEDLGVYFCLQVTHVPYTFGGGTKLEIKR"}, "B10": {"name": "anti-TSG-6 antibody of SEQ ID NO: 1 and SEQ ID NO: 2 (first entry of Table 1, clone name not printed) (antibody, V domains shown)", "VH": "QVRLQQSGAELAKPGASVKLSCKASGYTFTSYWMHWVKQRPGQGLEWIGYIIPSSGYTKNKQNFKDKATLTADKSSSTAYMQLSNLTYEDSAVYSCARSDGSYPYYFDYWGQGTTLTVSS", "VL": "B2 VL with T26S, W92G, A99S, L105I"}, "B11": {"name": "5B4 (antibody, V domains shown)", "VH": "QVQLQQPGAELVKPGASVKLSCKASDYTFTNYWMHWVKQRPGRGLEWIGRIDPSSGGAKYNEKFKSKATLTVDKPSSTAYMEFSSLTSEDSAVYYCVRSRYDYDGWFAYWGLGTLVTVSA", "VL": "DIVMTQAAPSVPVTPGESVSISCRSSKSLLHSNGNTYLYWFLQRPGQSPQLLIYRMSNLASGVPDRFSGSGSGTAFTLRISRVEAEDVGVYYCMQHLEYPFTFGGGTKLEIKR"}, "B12": {"name": "4F1 (antibody, V domains shown)", "VH": "EVKLVESGGGLVQPGGSLSLSCAASGFTFTDYYMSWVRQPPGKALEWLGFIRHKAKGYTAEYSASVKGRFTISRDNSQSILYLQMNALRAEDSATYYCARLYYYGSPHWYFDVWGTGTTVTVSS", "VL": "QIVLTQSPAIMSASPGEKVTMTCSASSSVSYMHWYQQKSGTSPKRWIYDTSKLASGVPARFSGSGSGTSYSLTISSMEAEDAATYYCQQWSSNPPTFGSGTELEIKR"}}, "note": "Substitutions are numbered along the chain they refer to."}
{"target": "T1, Recombinant human TSG-6 (R&D Biosystems, catalog #2104-TS) (human, UniProt P98066 18-277)", "T1 sequence (P98066 18-277)": "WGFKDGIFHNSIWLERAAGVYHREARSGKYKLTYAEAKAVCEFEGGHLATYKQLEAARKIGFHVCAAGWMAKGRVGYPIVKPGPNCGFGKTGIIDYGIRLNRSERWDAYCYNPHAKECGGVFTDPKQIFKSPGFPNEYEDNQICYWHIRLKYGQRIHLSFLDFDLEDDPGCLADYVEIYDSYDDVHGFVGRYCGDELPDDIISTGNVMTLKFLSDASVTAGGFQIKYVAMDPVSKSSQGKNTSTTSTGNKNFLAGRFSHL", "assay": "inhibition of HC-HA transesterase activity; HC-HA transesterase", "units": {"IC50": "nM"}}
{"binder": "B1", "IC50": 375}
{"binder": "B2", "IC50": 8}
{"binder": "B3", "IC50": 4}
{"binder": "B4", "IC50": 10}
{"binder": "B5", "IC50": 140}
{"binder": "B6", "IC50": 1100}
{"binder": "B7", "IC50": 12}
{"binder": "B8", "IC50": "> 3000"}
{"binder": "B9", "IC50": 36}
{"binder": "B10", "IC50": 19}
{"binder": "B11", "IC50": 68}
{"binder": "B12", "IC50": 44}
{"target": "T1, Recombinant human TSG-6 (R&D …)", "assay": "inhibition of HA binding to TSG-6; HA binding", "units": {"IC50": "nM"}}
{"binder": "B1", "IC50": 32}
{"binder": "B2", "IC50": "> 667"}
{"binder": "B3", "IC50": "~1400"}
{"binder": "B4", "IC50": "> 667"}
{"binder": "B5", "IC50": "> 667"}
{"binder": "B6", "IC50": 47}
{"binder": "B7", "IC50": 10}
{"binder": "B8", "IC50": 290}
{"binder": "B9", "IC50": "> 667"}
{"binder": "B10", "IC50": "> 2000"}
{"binder": "B11", "IC50": "> 667"}
{"binder": "B12", "IC50": "> 667"}
